For the experiment, the target named is BoABA2, purified protein (GST pull-down and enzyme assay) (cabbage (Brassica oleracea var. capitata)).

Take “BoCML37, purified protein (GST pull-down and enzyme assay) (natural protein)”: the BoABA2 catalytic activity in converting xanthoxin to abscisic aldehyde in vitro, co-incubated with BoCML37 in the presence of Ca2+, relative to BoABA2 alone was 3.88 fold.

The values above are taken from paper PMC12677907.
